Measurements reported in US20170100354A1.

Molecular target: H4 tail (residues 1-30) of the acetyl reporter protein (H4ac indicator)
Assay: cell-based or functional assay

% of cells discriminated from auto fluorescence (FACS), H4ac indicator, 1 µM SAHA: 5%
% of cells discriminated from auto fluorescence (FACS), H4ac indicator, 2.5 µM SAHA: 20%
% of cells discriminated from auto fluorescence (FACS), H4ac indicator, 7.5 µM SAHA: 40%
% of cells discriminated from auto fluorescence (FACS), H4ac indicator, 10 µM SAHA: 45%
Sequence: TATA binding protein (TBP)-associated factor II (TAFII) bromodomain of the H4ac indicator
